Reference: publication PMC6030200 (2018)

T1: recombinant human integrin α6β4 (human, UniProt P23229;P16144)
T1 chain 1: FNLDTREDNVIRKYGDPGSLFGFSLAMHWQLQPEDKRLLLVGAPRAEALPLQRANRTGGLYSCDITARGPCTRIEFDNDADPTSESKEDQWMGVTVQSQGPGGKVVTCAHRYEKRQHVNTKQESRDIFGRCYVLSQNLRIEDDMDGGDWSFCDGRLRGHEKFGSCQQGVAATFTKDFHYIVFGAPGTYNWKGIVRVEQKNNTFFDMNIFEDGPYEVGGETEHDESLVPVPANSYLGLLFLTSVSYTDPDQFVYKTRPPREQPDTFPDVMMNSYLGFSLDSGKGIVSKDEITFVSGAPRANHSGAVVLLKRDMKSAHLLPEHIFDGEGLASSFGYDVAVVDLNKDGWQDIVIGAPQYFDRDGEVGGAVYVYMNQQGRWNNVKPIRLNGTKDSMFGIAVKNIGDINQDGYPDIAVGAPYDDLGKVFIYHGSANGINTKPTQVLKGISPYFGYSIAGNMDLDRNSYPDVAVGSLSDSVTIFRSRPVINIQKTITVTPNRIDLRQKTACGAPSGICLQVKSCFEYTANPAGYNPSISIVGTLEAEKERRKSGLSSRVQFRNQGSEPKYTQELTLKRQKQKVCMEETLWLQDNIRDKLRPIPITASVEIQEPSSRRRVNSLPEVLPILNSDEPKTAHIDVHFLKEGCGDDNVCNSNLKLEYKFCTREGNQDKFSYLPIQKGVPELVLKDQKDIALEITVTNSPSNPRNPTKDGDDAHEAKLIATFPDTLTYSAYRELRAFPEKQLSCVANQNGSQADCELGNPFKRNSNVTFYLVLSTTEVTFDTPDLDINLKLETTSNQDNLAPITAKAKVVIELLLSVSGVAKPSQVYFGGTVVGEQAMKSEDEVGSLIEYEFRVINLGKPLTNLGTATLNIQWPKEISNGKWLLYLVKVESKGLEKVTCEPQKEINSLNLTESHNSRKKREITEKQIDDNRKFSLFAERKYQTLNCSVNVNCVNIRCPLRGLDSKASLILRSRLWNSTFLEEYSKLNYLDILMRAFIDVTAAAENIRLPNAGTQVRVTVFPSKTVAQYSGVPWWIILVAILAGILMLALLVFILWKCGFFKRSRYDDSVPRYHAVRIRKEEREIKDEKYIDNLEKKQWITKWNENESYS
T1 chain 2: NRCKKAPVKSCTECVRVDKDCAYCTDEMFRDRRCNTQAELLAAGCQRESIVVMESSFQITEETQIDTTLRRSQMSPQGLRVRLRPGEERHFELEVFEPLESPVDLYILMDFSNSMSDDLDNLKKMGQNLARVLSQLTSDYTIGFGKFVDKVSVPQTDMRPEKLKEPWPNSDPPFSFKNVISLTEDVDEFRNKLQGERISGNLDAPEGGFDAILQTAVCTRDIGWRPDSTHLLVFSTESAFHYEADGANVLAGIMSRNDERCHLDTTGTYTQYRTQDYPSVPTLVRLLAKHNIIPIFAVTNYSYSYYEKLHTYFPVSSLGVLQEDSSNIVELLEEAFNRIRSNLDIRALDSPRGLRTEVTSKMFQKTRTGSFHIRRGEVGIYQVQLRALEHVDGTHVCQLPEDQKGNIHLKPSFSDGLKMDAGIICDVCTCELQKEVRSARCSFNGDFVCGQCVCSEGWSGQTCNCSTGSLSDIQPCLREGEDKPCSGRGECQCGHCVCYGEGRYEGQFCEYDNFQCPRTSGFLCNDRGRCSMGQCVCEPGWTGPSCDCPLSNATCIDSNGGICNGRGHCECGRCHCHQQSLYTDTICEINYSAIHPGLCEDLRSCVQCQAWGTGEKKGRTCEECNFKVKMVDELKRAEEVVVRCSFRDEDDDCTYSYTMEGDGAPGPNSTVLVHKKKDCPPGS

B1: HAdV-41 penton base protein, recombinant, soluble (natural protein)
chain: MRRAVGVPPVMAYAEGPPPSYESVMGSADSPATLEALYVPPRYLGPTEGRNSIRYSELAPLYDTTRVYLVDNKSADIASLNYQNDHSNFQTTVVQNNDFTPAEAGTQTINFDERSRWGADLKTILRTNMPNINEFMSTNKFKARLMVEKKNKETGLPRYEWFEFTLPEGNYSETMTIDLMNNAIVDNYLEVGRQNGVLESDIGVKFDTRNFRLGWDPVTKLVMPGVYTNEAFHPDIVLLPGCGVDFTQSRLSNLLGIRKRLPFQEGFQIMYEDLEGGNIPALLDVAKYEASIQKAKEEGKEIGDDTFATRPQDLVIEPVAKDSKNRSYNLLPNDQNNTAYRSWFLAYNYGDPKKGVQSWTLLTTADVTCGSQQVYWSLPDMMQDPVTFRPSTQVSNYPVVGVELLPVHAKSFYNEQAVYSQLIRQSTALTHVFNRFPENQILVRPPAPTITTVSENVPALTDHGTLPLRSSISGVQRVTITDARRRTCPYVHKALGIVAPKVLSSRTF
B2: HAdV-5 penton base protein, recombinant, soluble (natural protein)
chain: MRRAAMYEEGPPPSYESVVSAAPVAAALGSPFDAPLDPPFVPPRYLRPTGGRNSIRYSELAPLFDTTRVYLVDNKSTDVASLNYQNDHSNFLTTVIQNNDYSPGEASTQTINLDDRSHWGGDLKTILHTNMPNVNEFMFTNKFKARVMVSRLPTKDNQVELKYEWVEFTLPEGNYSETMTIDLMNNAIVEHYLKVGRQNGVLESDIGVKFDTRNFRLGFDPVTGLVMPGVYTNEAFHPDIILLPGCGVDFTHSRLSNLLGIRKRQPFQEGFRITYDDLEGGNIPALLDVDAYQASLKDDTEQGGGGAGGSNSSGSGAEENSNAAAAAMQPVEDMNDHAIRGDTFATRAEEKRAEAEAAAEAAAPAAQPEVEKPQKKPVIKPLTEDSKKRSYNLISNDSTFTQYRSWYLAYNYGDPQTGIRSWTLLCTPDVTCGSEQVYWSLPDMMQDPVTFRSTRQISNFPVVGAELLPVHSKSFYNDQAVYSQLIRQFTSLTHVFNRFPENQILARPPAPTITTVSENVPALTDHGTLPLRNSIGGVQRVTITDARRRTCPYVYKALGIVSPRVLSSRTF
B3: HAdV-40 penton base protein, recombinant, soluble (natural protein)
chain: MRRAVGVPPVMAYAEGPPPSYESVMETADLPATLQALHVPPRYLGPTEGRNSIRYSELAPLYDTTRVYLVDNKSADIASLNYQNDHSNFQTTVVQNNDFTPTEAGTQTINFDDRSRWGGDLKTILRTNMPNINEFMSTNKFRARVMVEKVNRKTNAPRYEWFEFTLPEGNYSETMTIDLMNNAIVDNYLAVGRQNGVLESDIGVKFDTRNFRLGWDPVTKLVMPGVYTNEAFHPDIVLLPGCGVDFTQSRLNNLLGIRKRMPFQKGFQIMYEDLEGGNIPALLDVEKYEASIKEAQEIRGADFKPNPQDLEIVPVEKDSKERSYNLLEGDKNNTAYRSWFLAYNYGDAEKGVKSWTLLTTTDVTCGSQQVYWSLPDMMQDPVTFRPSTQVSNYPVVGVELLPVHAKSFYNEQAVYSQLIRQSTALTHIFNRFPENQILVRPPAPTITTVSENVPALTDHGTLPLRSSISGVQRVTITDARRRTCPYVHKALGIVAPKVLSSRTF

Key:
Assay in all cases: SPR
[1] = biological target: T2, recombinant human integrin α6β1 (human, UniProt P23229;P05556)
[2] = biological target: T1, recombinant human integrin α6β4
[3] = biological target: T2, recombinant human integrin α6β1; remark: listed apart in the source
[4] = biological target: T1, recombinant human integrin α6β4

Binder	koff [1] [s⁻¹]	koff [2] [s⁻¹]	Kd [3] [nM]	Kd [4] [nM]
B1	0.011	0.022	473	41.2
B2	0.0059	0.0045	1560	95
B3		0.0049	426	32.7
